Source: PMC5596431 (Cell Death and Differentiation, 2017)

Biological target: BiP (binding immunoglobulin protein), ER-resident chaperone (human (endogenous in H1299), UniProt P11021 19-654)
Assay: proximity ligation

BiP (binding immunoglobulin protein), ER-resident chaperone, sequence (P11021 19-654): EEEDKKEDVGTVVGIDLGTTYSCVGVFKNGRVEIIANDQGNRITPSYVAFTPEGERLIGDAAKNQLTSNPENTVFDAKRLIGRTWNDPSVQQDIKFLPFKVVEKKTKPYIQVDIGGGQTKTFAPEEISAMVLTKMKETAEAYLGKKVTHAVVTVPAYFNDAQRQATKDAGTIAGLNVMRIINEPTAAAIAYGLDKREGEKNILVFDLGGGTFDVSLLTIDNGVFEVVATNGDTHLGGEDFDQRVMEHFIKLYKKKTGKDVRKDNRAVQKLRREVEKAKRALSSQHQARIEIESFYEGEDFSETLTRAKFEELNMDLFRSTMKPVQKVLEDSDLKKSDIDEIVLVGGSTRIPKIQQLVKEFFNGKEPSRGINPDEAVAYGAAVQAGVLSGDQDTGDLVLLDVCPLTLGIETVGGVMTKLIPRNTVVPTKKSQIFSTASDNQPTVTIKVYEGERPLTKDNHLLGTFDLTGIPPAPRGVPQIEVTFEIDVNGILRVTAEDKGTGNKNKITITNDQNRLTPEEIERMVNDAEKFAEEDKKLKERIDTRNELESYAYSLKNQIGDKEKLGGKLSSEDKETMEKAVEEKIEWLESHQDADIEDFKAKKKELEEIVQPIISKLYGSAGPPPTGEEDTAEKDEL

B1: BIK, BH3-only pro-apoptotic member of the BCL-2 family (natural protein, human (endogenous in H1299), UniProt Q13323 1-160, looked up)
chain: MSEVRPLSRDILMETLLYEQLLEPPTMEVLGMTDSEEDLDPMEDFDSLECMEGSDALALRLACIGDEMDVSLRAPRLAQLSEVAMHSLGLAFIYDQTEDIRDVLRSFMDGFTTLKENIMRFWRSPNPGSWVSCEQVLLALLLLLALLLPLLSGGLHLLLK
B1 was tested, and the “ratio of PLA BIK/BiP complexes in p53-positive/p53-negative cells, DMSO” value was 1.3 ratio and the “ratio of PLA BIK/BiP complexes in p53-positive/p53-negative cells, thapsigargin” value was 0.4 ratio.
